Experiment: soluble on expression in E. coli; label from the status in PepcDB or PDB records

Sequence | soluble on expression in E. coli
MFSPEQIAGKDVRLLRIKKEGSLDLALEGGVDSPVGKVVVSAVYEGGAAERHGGVVKGDEIMAINGKIVTDYTLAEAEAALQKAWNQGGDWIDLVVAVCPPKEYDDELTFF | soluble
MALQLGRLSSGPCWLVARGGCGGPRAWSQCGGGGLRAWSQRSAAGRVCRPPGPAGTEQSRGLGHGSTSRGGPWVGTGLAAALAGLVGLATAAFGHVQRAEMLPKTSGTRATSLGRPEEEEDELAHRCSSFMAPPVTDLGELRRRPGDMKTKMELLILETQAQVCQALAQVDGGANFSVDRWERKEGGGGISCVLQDGCVFEKAGVSISVVHGNLSEEAAKQMRSRGKVLKTKDGKLPFCAMGVSSVIHPKNPHAPTIHFNYRYFEVEEADGNKQWWFGGGCDLTPTYLNQEDAVHFHRTLKEACDQHGPDLYPKFKKWCDDYFFIAHRGERRGIGGIFFDDLDSPSKEEVFRFVQSCARAVVPSYIPLVKKHCDDSFTPQEKLWQQLRRGRYVEFNLLYDRGTKFGLFTPGSRIESILMSLPLTARWEYMHSPSENSKEAEILEVLRHPRDWVR | not soluble
MAHHHHHHMGTLEAQTQGPGSMTYETILVERDQRVGIITLNRPQALNALNSQVMNEVTSAATELDDDPDIGAIIITGSAKAFAAGADIKEMADLTFADAFTADFFATWGKLAAVRTPTIAAVAGYALGGGCELAMMCDVLIAADTAKFGQPEIKLGVLPGMGGSQRLTRAIGKAKAMDLILTGRTMDAAEAERSGLVSRVVPADDLLTEARATATTISQMSASAARMAKEAVNRAFESSLSEGLLYERRLFHSAFATEDQSEGMAAFIEKRAPQFTHR | soluble
SSSPPEGKLETKAGHPPAVKAGGMRIVQKHPHTGDGKEERDKDDQEWESTSPPKPTVFISGVIARGDKDFPPAAAQVAHQKPHASMDKHVSPRTQHIQQPRK | soluble
MRSYRAQGPLPGFYHYYPGVPAVVGVRVEERVNFCPAVWNTGLSADPPLFGVSISPKRFTHGLLLKARRFSASFHPFGQKDLVHWLGSHSGREVDKGQAPHFLGHTGVPILEGAYAAYELELLEVHTFGDHDLFVGRVVAVWEEEGLLDEKGRPKPGLALLYYGKGLYGRPAEETFAP | soluble
MGHHHHHHSHMANSAGSMANSAGSSWHNDHNFSVSKQPNLVVHNHTVTVPEGETVKGDVTVKNGKLIIKGKIDGDVTVVNGEKYMASAGQVTGQIEEINQLFDWTWYKMKSAGKSVLDAFNPNGEE | not soluble
MATHVAIIGNGVGGFTTAQALRAEGFEGRISLIGDEPHLPYDRPSLSKAVLDGSLERPPILAEADWYGEARIDMLTGPEVTALDVQTRTISLDDGTTLSADAIVIATGSRARTMALPGSQLPGVVTLRTYGDVQVLRDSWTSATRLLIVGGGLIGCEVATTARKLGLSVTILEAGDELLVRVLGRRIGAWLRGLLTELGVQVELGTGVVGFSGEGQLEQVMASDGRSFVADSALICVGAEPADQLARQAGLACDRGVIVDHCGATLAKGVFAVGDVASWPLRAGGRRSLETYMNAQRQAAAVAAAILGKNVSAPQLPVSWTEIAGHRMQMAGDIEGPGDFVSRGMPGSGAALLFRLQERRIQAVVAVDAPRDFALATRLVEARAAIEPARLADLSNSMRDFVRANEGDLT | soluble
MKKPVYLTPEGYRRLQEELNHLKTVKRQEISADFEQALEEGDLRENAGYDEARRAMWQNEARIAQLEDLLSRAVIVENGSFDQVALGCQVELETETGERLSLAIVGSHEADIFSGKISDESPLGQALLGKKVGDVVEIRGKKGAQVYTILEIKPL | soluble
MGSDKIHHHHHHMRVAIDAFNIALAHGTGVATYGRTLASAAAGLGHEVNVLFGAGAGYSKVPLLNEIALAEVGAVSARGPSRAALARGIARGLAGARPAHDLPISGQVILPPGLRLDARRHSNVPNLFKAADLGFRAAGAFSKVKVPGTDLAHWTYPLPLKMVGARNVYTLHDLVPLRLPYTTADVKHAYYRLCRRIARDADHILTVSECSRRDIVRLLGVDEDRVTNLYQTSDIADAIAGVSEDFVARYVEGLLGVGMREYFLFFGAIEPKKNVARLIEAFLASAVQSPLVIVGGAGWGGEQDVKLLKSLAGMDTRKRIVWLGYLPRQMLAMLIAGARATVFPSLYEGFGLPVLESMELGTPVITSNVSSLPEVAQDAGLLVDPYDVRSLATAFLQLDADPGLRSQMSMRGREVAAGFSAEAYRGRLADFYAKF | not soluble
MGSDKIHHHHHHMLLQTKSNEMLLEKVMDEFSAATSLASVVVDIHGTEVSRLCNFTPFCQLIRSNPKYRSLCQKCDMFGGLEASKTGKPLIYRCHAGLTDFSVPIVVENQLSGFLLSGQVICEENSEVGNIQTEETDWKNDKDLISAFRSVPVFSSKKINSSAEMLTIISQYYLKSEMEKSREEQKQKIVFHHNKPTHHEDNKEIRKALKYIEKNLNRPITLDEVASHVYLSSYYFSKLFKKEMNVNFINYVNQKKMSLAKDMLKNPRWSIDNVARNLGFTQTSYFCKVFRKEFDVTPKGYRETLK | not soluble
MAHHHHHHMKKASKNSNYHGLEKSLRRRGGKIKTIYEKYKDIDFQNIIDEKIKYVWNYINNIDDIISDEEFLKEEIKQKLEKKQSLKKNDDFDEIIYYNKNVKNLINIQKVRKALYHFNIKVDMEDIMHMFLYYTNQDYFLKFIQNNIYSKNYVERKMDKYKFTSININNLYINYEMFKFIFLNIDMNIEQNGQMW | not soluble
MGASSSSSVSEKSIHQFTVKDSSGKEVDLSVYQGKVLLVVNVASKCGFTESNYTQLTELYRKYKDQGFVVLAFPCNQFLSQEPGTSEEAHQFACTRFKAEYPVFQKVRVNGQNAAPVYKFLKSKKPSFLGSRIKWNFTKFLVGKDGQVIDRYGTTVSPLSIQKDIEKALAQEL | soluble
VAKKKRKLKVIPLGGLGEIGKNITVFEYGDDIFVVDCGIAFPEDDMLGIDLVIPDISYLTKNREKVRGIVLTHGHEDHIGALPYVLKDLNVPVYGTKLTLGLLEQKLEEHGLLNNVVLNVVKHSDVIELGCFKVEFIRSTHSIADSTALAIFTPVGTIFHTGDFKIDYTPIEGEPIDLARLAELGKKGVLLLMCDSTNVEREGYTMSEKTVGETFDEIFMNAKNRILVATFASNVHRIQQIVNAAIKFGRKIAICGRSMVNVVNVAMELGYMNVPEGLIIDIDHINKYPPEKIVIITTGSQGEPMSALTRMASGDHKKVEIIPGDLVIISANPIPGNEKLVSRVVNDLFKKGAEVIYESLADIHVSGHASQEELKLIHRLIRPKYFMPVHGEYRHLKRHANLAVELGMSPENIFIMDIGKVLELTNDSAKINGSVNAGRVLVDGLGVGDVGNIVLRDRKHLSQDGLIVVVITIEGDTGNVIAGPDVISRGFVYVRESEDLMEEIREVCKAALQKCNDKKKNDWSTKKSIIRDALRDFLYERTKRRPMILPIIMEV | soluble
GVKCEPFEHLVIDTPQDFSGAIIERLGKRKAEMKAMNPMSDGYTRLEFEIPARGLIGYRSEFLTDTKGEGVMNHSFLEFRPFSGSVESRKNGALISMENGEATAFSLFNIQERGTLFINPQTKVYVGMV | not soluble
MFPRKELLKDGSLLLIREASIWDARRIVEYLKEVTSETDFLITRPDEVYDVSTERNYIRMYRSNPGKLMIVGEINREIVSLLTFTGFGRKRTKHVGEIGISVKKRYWNIGIGTRMITSAIEWARRNGFIRIQLEVLKSNERAISLYRKLGFELEGIKRKAVRRDDGSFEDVLVMALLLD | soluble
MVYSWQHCPNTRSNTEAMMAHDWDEYAANWEKDPATHAFAQSVFEHLTKILSLQGKHILDFGCGTGLLSQRMSPFARDIVALDSSEAMIEELDRKELRNVEPVVDCLTRGLVAQHPAFRKQFDLVVASSVCAFLPNLQDVTDIIFTLVDEGGYFVHFDWLADGKSEIGLSTTEIESVLRNAGFSAVETRVAFDVTTAQGTQPVVVGIARK | not soluble
MSLAQSIVVVAEPSHSDLYDLLAVGNAGIRLVSAAGLSTAIGPSDPDIVILDSGTDADGGITLLGEIKALRNDLPVIFLTDSSSEEIVLKAFRKGAREYFRKPVDLHVLQHAVETILALRRMQRERRDPLKRHYSDPINLPDDLPESIGRAVMHIKSNYDCALYLDDLARAAHLSKFHFCRNFKKYIGVSPMRFMNMVKISKAETLLRRADLTISTVAYKLGFNDPSEFTRQFKSITGISPSAFRRSCLSEGHHHHHH | not soluble
MGSDKIHHHHHHVVKHPAWSRFGAEVRRLRVQSGYSQAQLARAIPLSQSMLSGIELGRKGAKRDHAEALDRVLNTGGRLVRLWDSLNSIPAHPSWFQNVLALERKAVEIREYQMVVLPGLLQTEDYARSLIRPAQPWANAEKVDELVHARMSRREILTAPDRPLCWFVVDQVVIDRVTGSPTVMKEQLTYLLNLIEDHTIRFQVFPQEIPLHPGLTGPIRIMSFDDRPTMAYVEHTLGGLLTDQQQEVRYCSAIFSALQSEALSSHASADYIRRRKDQL | not soluble
MKESAASVAVRPQLREVFERFPADAHRTIEDEIHEMMKCYAFDDAIFLAELHYETDKSNNSESLLLYADCLYRANKKEECYGLLSSVKLSGARLFYLLARVSYDLNKIDDCRGALFEHDDGVIRKDILEEPRVASHANLLHAQMLCDESYMDLALESCQKSLDENILLWSAIITYLRFGGHDLAHTFEKHHRKSNGLYLDSPASSLKSETPSPNVPGPSSSSAASTAEPSRLESSVRRSTRGTIASANRETRNTTSNITPRQSTPGSTPSRINPTAPRKSSRISEMTTRRTESSVTGSRSSLFTEPERPHTRATHSSRNRANAALNSDTENSNASNTRTRSGIASVTRGSSSSQRTNPVRTSIRIADAAAAANKTAKTLSQRRRNEKQPLVSRNSNLARSLSGSTNSVASTASERPSEDEVSQINPPLPSVASSLNNDEPMDIVDGVYDPEYKKLFDVYQHIALIEESISTYNWRSADALFAKLDRDIILNTSMVRLQLGRACFEQSEYRECRNILDDLHKRRKWKVDGTELLSTSMWHLQDTHALSALSQILTTESRERPQSWCAAGNCFSLQRQHTQAIECMERAIQLDKRFAYAYTLLGHELIVQDELDKAAGSFRSALLLSPRDYRAWYGLGLVHLKKEQNLTALTNIQKAVNINPTNRAMLCTLSQIEQQRGQIDTALVLIDRALTLNPLDVACRFNRSRLLFEANRNEECLVELDKLKASSPDEAFIFHLLARVHRRMGNTHLALLNYSWAAELDPRGEQNITDSNVINREEYEDDEYGSPV | not soluble
MELGQAMVTVAGIGCRKGAASDAIIAAVRAAERAFGVTVDYLATAPLKADEAGLAEAAKGLSLSLEIVAQERLEAVAAETMTFSQASLDHSGSPSVSEAAALAAAGAGARLVAPRLVVGDVTVAIAMTSDAPHGSRSAIEYGEQE | not soluble
MGSDKIHHHHHHMLLTRNEPFTAEKIQAKADILELVQFERFCRDNALWDAMETCFTKDSNVKISWFQGTGHGFIEASKKMTNPAPHKIYNTQVWIKNDRAVAIMQATIQTRTIINGVEMELNSDAKLVTRVERIDGKWYINAFEGVYEKDSLMPVVPSKNADVPAELLANFRKSYACLALSLTLNGYEIDNNLPGIDRPEQVTQFFKEADEWLLQ | not soluble
MKVDLFDFHLPEELIAQTPLPDRAASRLMVLDKRTGAIRHETFRNIISYLNPGDCLVLNDTRVMPARLYGEKEETGGTVEVLLLKQLDGDRWETLVKPGKRVKPGTKLTFGGGKLEAVCLDTLEHGGRVLEFSYDGLFYEVLAELGEMPLPPYIKEKLDDPERYQTVYAREIGSAAAPTAGLHFTEELLDAIREKGVHIVFITLHVGLGTFRPVQVDEVEKHDMHAEFYQMSEETAETLNRVREQGGRIIAVGTTSTRTLETIAGKHNGRFVAESGWTDIFIYPGYEFKGIDGLVTNFHLPKSTLIMLVSALAGRENILHAYQVAVKERYRFFSFGDAMLII | not soluble
MTDGSMDIDAMLEGGLEMAKNDRSQSRQRSPARSNRSRPSRVPIQSDVD | not soluble
